The results in this text go back to patent US20210388087A1 (Chugai, published 2021).

Residue numbers refer to the chain shown, from its start. Names and notes keep the numbering of the source.

First the molecules themselves.
T1: Human CD3eg linker (human)
T1 construct: Single chain: epsilon and gamma subunits of human CD3 joined by a 29-mer linker, Flag-tag at the C-terminus; also called recombinant human CD3
T1 chain: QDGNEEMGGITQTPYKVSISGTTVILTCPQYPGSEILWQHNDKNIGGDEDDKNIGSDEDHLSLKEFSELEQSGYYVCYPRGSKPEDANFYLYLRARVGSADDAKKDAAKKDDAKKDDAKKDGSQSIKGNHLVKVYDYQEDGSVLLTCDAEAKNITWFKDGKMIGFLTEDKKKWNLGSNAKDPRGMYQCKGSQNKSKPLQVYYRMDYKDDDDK

B1: H183/L072 VH F29G (antibody, name in Kabat numbering, V domains shown)
VH: QVQLVESGGGLVQPGRSLRLSCAASGFTGSNAWMHWVRQAPGKGLEWVAQIKDKGNAYAAYYAPSVKGRFTISRDDSKNSIYLQMNSLKTEDTAVYYCHYVHYASASTVLPAFGVDAWGQGTTVTVSS
VL: DIVMTQSPLSLPVTPGEPASISCQASQELVHMNRNTYLHWYQQKPGQAPRLLIYKVSNRFPGVPDRFSGSGSGTDFTLKISRVEAEDVGVYYCAQGTSVPFTFGQGTKLEIK
B2: H183/L072 VH F29P (antibody, name in Kabat numbering, V domains shown)
VH: B1 VH with G29P
VL: B1 VL
B3: H183/L072 VH F29R (antibody, name in Kabat numbering, V domains shown)
VH: B1 VH with G29R
VL: B1 VL
B4: H183/L072 VH G52cH (antibody, name in Kabat numbering, V domains shown)
VH: B1 VH with G29F, G55H
VL: B1 VL
B5: H183/L072 VH G26N (antibody, name in Kabat numbering, V domains shown)
VH: B1 VH with G26N, G29F
VL: B1 VL
B6: H183/L072 VH G26I (antibody, name in Kabat numbering, V domains shown)
VH: B1 VH with G26I, G29F
VL: B1 VL
B7: H183/L072 VH G26F (antibody, name in Kabat numbering, V domains shown)
VH: B1 VH with G26F, G29F
VL: B1 VL
B8: H183/L072 VH G26W (antibody, name in Kabat numbering, V domains shown)
VH: B1 VH with G26W, G29F
VL: B1 VL
B9: H183/L072 VH F100gI (antibody, name in Kabat numbering, V domains shown)
VH: B1 VH with G29F, F113I
VL: B1 VL
B10: H183/L072 VH G52cA (antibody, name in Kabat numbering, V domains shown)
VH: B1 VH with G29F, G55A
VL: B1 VL
B11: H183/L072 VH G26P (antibody, name in Kabat numbering, V domains shown)
VH: B1 VH with G26P, G29F
VL: B1 VL
B12: H183/L072 VH F29Q (antibody, name in Kabat numbering, V domains shown)
VH: B1 VH with G29Q
VL: B1 VL
B13: H183/L072 VH F29V (antibody, name in Kabat numbering, V domains shown)
VH: B1 VH with G29V
VL: B1 VL
B14: H183/L072 VH F29K (antibody, name in Kabat numbering, V domains shown)
VH: B1 VH with G29K
VL: B1 VL
B15: H183/L072 VH F29T (antibody, name in Kabat numbering, V domains shown)
VH: B1 VH with G29T
VL: B1 VL
B16: H183/L072 VH F29S (antibody, name in Kabat numbering, V domains shown)
VH: B1 VH with G29S
VL: B1 VL
B17: H183/L072 VH G26K (antibody, name in Kabat numbering, V domains shown)
VH: B1 VH with G26K, G29F
VL: B1 VL
B18: H183/L072 VH F29W (antibody, name in Kabat numbering, V domains shown)
VH: B1 VH with G29W
VL: B1 VL
B19: H183/L072 VH G26R (antibody, name in Kabat numbering, V domains shown)
VH: B1 VH with G26R, G29F
VL: B1 VL
B20: H183/L072 VH G26H (antibody, name in Kabat numbering, V domains shown)
VH: B1 VH with G26H, G29F
VL: B1 VL
B21: H183/L072 VH G26T (antibody, name in Kabat numbering, V domains shown)
VH: B1 VH with G26T, G29F
VL: B1 VL
B22: H183/L072 VH G26L (antibody, name in Kabat numbering, V domains shown)
VH: B1 VH with G26L, G29F
VL: B1 VL
B23: H183/L072 VH G26D (antibody, name in Kabat numbering, V domains shown)
VH: B1 VH with G26D, G29F
VL: B1 VL
B24: H183/L072 VH F100gA (antibody, name in Kabat numbering, V domains shown)
VH: B1 VH with G29F, F113A
VL: B1 VL
B25: H183/L072 VH F100gM (antibody, name in Kabat numbering, V domains shown)
VH: B1 VH with G29F, F113M
VL: B1 VL
B26: H183/L072 VH G26E (antibody, name in Kabat numbering, V domains shown)
VH: B1 VH with G26E, G29F
VL: B1 VL
B27: H183/L072 VH G52cD (antibody, name in Kabat numbering, V domains shown)
VH: B1 VH with G29F, G55D
VL: B1 VL
B28: H183/L072 VH G26Q (antibody, name in Kabat numbering, V domains shown)
VH: B1 VH with G26Q, G29F
VL: B1 VL
B29: H183/L072 VH F100gL (antibody, name in Kabat numbering, V domains shown)
VH: B1 VH with G29F, F113L
VL: B1 VL
B30: H183/L072 VH F29M (antibody, name in Kabat numbering, V domains shown)
VH: B1 VH with G29M
VL: B1 VL
B31: H183/L072 VH G52cF (antibody, name in Kabat numbering, V domains shown)
VH: B1 VH with G29F, G55F
VL: B1 VL
B32: H183/L072 VH G26V (antibody, name in Kabat numbering, V domains shown)
VH: B1 VH with G26V, G29F
VL: B1 VL
B33: H183/L072 VH F100gP (antibody, name in Kabat numbering, V domains shown)
VH: B1 VH with G29F, F113P
VL: B1 VL
B34: H183/L072 VH F29H (antibody, name in Kabat numbering, V domains shown)
VH: B1 VH with G29H
VL: B1 VL
B35: H183/L072 VH F29I (antibody, name in Kabat numbering, V domains shown)
VH: B1 VH with G29I
VL: B1 VL
B36: H183/L072 VH G26Y (antibody, name in Kabat numbering, V domains shown)
VH: B1 VH with G26Y, G29F
VL: B1 VL
B37: H183/L072 VH G26S (antibody, name in Kabat numbering, V domains shown)
VH: B1 VH with G26S, G29F
VL: B1 VL
B38: H183/L072 VH F29N (antibody, name in Kabat numbering, V domains shown)
VH: B1 VH with G29N
VL: B1 VL
B39: H183/L072 VH G52cE (antibody, name in Kabat numbering, V domains shown)
VH: B1 VH with G29F, G55E
VL: B1 VL
B40: H183/L072 VH G26M (antibody, name in Kabat numbering, V domains shown)
VH: B1 VH with G26M, G29F
VL: B1 VL
B41: H183/L072 VH F29Y (antibody, name in Kabat numbering, V domains shown)
VH: B1 VH with G29Y
VL: B1 VL
B42: H183/L072 VH F29L (antibody, name in Kabat numbering, V domains shown)
VH: B1 VH with G29L
VL: B1 VL

The experiment addresses T1, Human CD3eg linker. Briefly: Biacore SPR, vs template H183/L072. In general terms: SPR reads the build-up and loss of mass on a sensor chip optically.
On to B1, for which the “fold change of affinity” value was found to be 0 fold. Take B2: the “fold change of affinity” value was 0.2 fold. With B3, the “fold change of affinity” value stood at 0 fold. Then B4, with 1.7 fold. Regarding B5, the “fold change of affinity” value stood at 0.4 fold. Take B6: the “fold change of affinity” value was found to be 0.5 fold. B7: the “fold change of affinity” value came to 0.4 fold. To B8 belongs 0.6 fold. For B9, the “fold change of affinity” value was 1.2 fold. For B10, the “fold change of affinity” value was 1.6 fold. For B11, the “fold change of affinity” value was 0.1 fold. Then B12, with 0.2 fold. As to B13, the “fold change of affinity” value was 0 fold. As for B14, the “fold change of affinity” value was 0.1 fold. Regarding B15, the “fold change of affinity” value is 0.2 fold. B16: the “fold change of affinity” value was found to be 0.1 fold.

B17: the “fold change of affinity” value is 0.6 fold. With B18, the “fold change of affinity” value is 0.5 fold. In the case of B19, the “fold change of affinity” value was determined as 0.5 fold. Then B20, with 0 fold. For the molecule B21, the “fold change of affinity” value is 0.4 fold. As to B22, the “fold change of affinity” value is 0.6 fold.

For the molecule B23, the “fold change of affinity” value is 0.2 fold. With B24, the “fold change of affinity” value was determined as 1.7 fold.

In the case of B25, the “fold change of affinity” value came to 1.4 fold. In the case of B26, the “fold change of affinity” value was 0.6 fold. To B27 belongs 1.1 fold. Then B28, with 0.4 fold; and B29, with 1.3 fold. Then B30, with 0.4 fold. Take B31: the “fold change of affinity” value stood at 2 fold. Then B32, with 0 fold. Regarding B33, the “fold change of affinity” value was 1.8 fold. To B34 belongs 0 fold. On to B35, for which the “fold change of affinity” value came to 0.3 fold. Regarding B36, the “fold change of affinity” value was determined as 0.6 fold. To B37 belongs 0.2 fold.

In the case of B38, the “fold change of affinity” value is 0 fold. On to B39, for which the “fold change of affinity” value worked out at 1.2 fold. With B40, the “fold change of affinity” value is 0.6 fold. To B41 belongs 0.4 fold; to B42, 0.4 fold.
